Columns and labels:
[1] = biological target: ヒトCD40 (human CD40 expressed on cells) (human) (UniProt P25942); experiment: cell-based or functional assay
[2] = biological target: ヒトCD40ヒトFC (human CD40 extracellular region fused to human IgG1 FC) (human) (UniProt P25942); experiment: SPR, BIAcore 2000; CD40 human FC immobilised on CM5; control IgG added first, then soluble CD40L 10 ug/ml; difference before and after CD40L

扁桃腺B細胞の増殖抑制 ([3H]チミジン; flag標識CD40L+エンハンサー抗体刺激) [1]	CD40Lの結合量 (RU) [2]	Substance
50%		5D12抗体 (mouse anti-human CD40 antibody, ATCC No.HB-11339)
	100 RU	可溶性CD40リガンド (soluble CD40 ligand, FLAG-tagged, ALEXIS CORPORATION) (from UniProt P29965 116-261)
